Measurements reported in US20100015650.

Key:
[1] = molecular target: T1, BRB1 tyrosine kinase substrate peptide
T1 chain: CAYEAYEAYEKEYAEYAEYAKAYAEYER

[2] = molecular target: poly-EAY
[3] = molecular target: poly-EY

B1: TYRO3 (protein)
chain: LRKRRKETRFGQAFDSVMARGEPAVHFRAARSFNRERPERIEATLDSLGISDELKEKLEDVLIPEQQFTLGRMLGKGEFGSVREAQLKQEDGSFVKVAVKMLKADIIASSDIEEFLREAACMKEFDHPHVAKLVGVSLRSRAKGRLPIPMVILPFMKHGDLHAFLLASRIGENPFNLPLQTLIRFMVDIACGMEYLSSRNFIHRDLAARNCMLAEDMTVCVADFGLSRKIYSGDYYRQGCASKLPVKWLALESLADNLYTVQSDVWAFGVTMWEIMTRGQTPYAGIENAEIYNYLIGGNRLKQPPECMEDVYDLMYQCWSADPKQRPSFTCLRMELENILGQLSVLSASQDPLYINIERAEEPTAGGSLELPGRDQPYSGAGDGSGMGAVGGTPSDCRYILTPGGLAEQPGQAEHQPESPLNETQRLLLLQQGLLPHSSC
**Q.** For B1, which Signal to Noise ratio with BRB1 Peptide (TR-FRET kinase assay; kinase 0.25 nM) [1] is on record?
**A.** 6.1

B2: ROR1 (protein)
chain: CRNNQKSSSAPVQRQPKHVRGQNVEMSMLNAYKPKSKAKELPLSAVRFMEELGECAFGKIYKGHLYLPGMDHAQLVAIKTLKDYNNPQQWTEFQQEASLMAELHHPNIVCLLGAVTQEQPVCMLFEYINQGDLHEFLIMRSPHSDVGCSSDEDGTVKSSLDHGDFLHIAIQIAAGMEYLSSHFFVHKDLAARNILIGEQLHVKISDLGLSREIYSADYYRVQSKSLLPIRWMPPEAIMYGKFSSDSDIWSFGVVLWEIFSFGLQPYYGFSNQEVIEMVRKRQLLPCSEDCPPRMYSLMTECWNEIPSRRPRFKDIHVRLRSWEGLSSHTSSTTPSGGNATTQTTSLSASPVSNLSNPRYPNYMFPSQGITPQGQIAGFIGPPIPQNQRFIPINGYPIPPGYAAFPAAHYQPTGPPRVIQHCPPPKSRSPSSASGSTSTGHVTSLPSSGSNQEANIPLLPHMSIPNHPGGMGITVFGNKSQKPYKIDSKQASLLGDANIHGHTESMISAEL
**Q.** With B2 as the protein, how does the Signal to Noise Ratio with BRB1 Peptide (TR-FRET kinase assay; kinase 20 nM) [1] read?
**A.** 1.1

B3: ROS (protein)
chain: HRRLKNQKSAKEGVTVLINEDKELAELRGLAAGVGLANACYAIHTLPTQEEIENLPAFPREKLTLRLLLGSGAFGEVYEGTAVDILGVGSGEIKVAVKTLKKGSTDQEKIEFLKEAHLMSKFNHPNILKQLGVCLLNEPQYIILELMEGGDLLTYLRKARMATFYGPLLTLVDLVDLCVDISKGCVYLERMHFIHRDLAARNCLVSVKDYTSPRIVKIGDFGLARDIYKNDYYRKRGEGLLPVRWMAPESLMDGIFTTQSDVWSFGILIWEILTLGHQPYPAHSNLDVLNYVQTGGRLEPPRNCPDDLWNLMTQCWAQEPDQRPTFHRIQDQLQLFRNFFLNSIYKSRDEANNSGVINESFEGEDGDVICLNSDDIMPVALMETKNREGLNYMVLATECGQGEEKSEGPLGSQESESCGLRKEEKEPHADKDFCQEKQVAYCPSGKPEGLNYACLTHSGYGDGSD
**Q.** B3 was tested. Which Signal to Noise ratio with BRB1 Peptide (TR-FRET kinase assay; kinase 0.25 nM) [1] did it give?
**A.** 24.5

B4: TIE2 (protein)
chain: QLKRANVQRRMAQAFQNVREEPAVQFNSGTLALNRKVKNNPDPTIYPVLDWNDIKFQDVIGEGNFGQVLKARIKKDGLRMDAAIKRMKEYASKDDHRDFAGELEVLCKLGHHPNIINLLGACEHRGYLYLAIEYAPHGNLLDFLRKSRVLETDPAFAIANSTASTLSSQQLLHFAADVARGMDYLSQKQFIHRDLAARNILVGENYVAKIADFGLSRGQEVYVKKTMGRLPVRWMAIESLNYSVYTTNSDVWSYGVLLWEIVSLGGTPYCGMTCAELYEKLPQGYRLEKPLNCDDEVYDLMRQCWREKPYERPSFAQILVSLNRMLEERKTYVNTTLYEKFTYAGIDCSAEEAA
**Q.** With B4 as the protein, how does the Signal to Noise ratio with BRB1 Peptide (TR-FRET kinase assay; kinase 0.5 nM) [1] read?
**A.** 17.7

B5: EphA4 (protein)
chain: SRRRSKYSKAKQEADEEKHLNQGVRTYVDPFTYEDPNQAVREFAKEIDASCIKIEKVIGVGEFGEVCSGRLKVPGKREICVAIKTLKAGYTDKQRRDFLSEASIMGQFDHPNIIHLEGVVTKCKPVMIITEYMENGSLDAFLRKNDGRFTVIQLVGMLRGIGSGMKYLSDMSYVHRDLAARNILVNSNLVCKVSDFGMSRVLEDDPEAAYTTRGGKIPIRWTAPEAIAYRKFTSASDVWSYGIVMWEVMSYGERPYWDMSNQDVIKAIEEGYRLPPPMDCPIALHQLMLDCWQKERSDRPKFGQIVNMLDKLIRNPNSLKRTGTESSRPNTALLDPSSPEFSAVVSVGDWLQAIKMDRYKDNFTAAGYTTLEAVVHVNQEDLARIGITAITHQNKILSSVQAMRTQMQQMHGRMVPV
**Q.** With B5 as the protein, how does the Average Signal at 665 nm (TR-FRET kinase assay; kinase 2 nM, read 1 h after adding Eu-PT66 antibody) [2] read?
**A.** 110000

**Q.** And the Average Signal at 665 nm (TR-FRET kinase assay; kinase 2 nM, read 18 h after adding Eu-PT66 antibody) [2]?
**A.** 51400

**Q.** What about the Average Signal at 665 nm (TR-FRET kinase assay; kinase 2 nM, read 24 h after adding Eu-PT66 antibody) [2] of the same protein?
**A.** 45800

**Q.** What about the Average Signal at 665 nm (TR-FRET kinase assay; kinase 2 nM, read 1 h after adding Eu-PT66 antibody) [1] of the same protein?
**A.** 134000

**Q.** What about the Average Signal at 665 nm (TR-FRET kinase assay; kinase 2 nM, read 18 h after adding Eu-PT66 antibody) [1] of the same protein?
**A.** 117000

**Q.** What about the Average Signal at 665 nm (TR-FRET kinase assay; kinase 2 nM, read 24 h after adding Eu-PT66 antibody) [1] of the same protein?
**A.** 116000

**Q.** What about the Signal to Noise ratio with BRB1 Peptide (TR-FRET kinase assay; kinase 0.5 nM) [1] of the same protein?
**A.** 31.5

**Q.** What about the Average Signal at 665 nm (TR-FRET kinase assay; kinase 2 nM, read 1 h after adding Eu-PT66 antibody) [3] of the same protein?
**A.** 89000

**Q.** And the Average Signal at 665 nm (TR-FRET kinase assay; kinase 2 nM, read 18 h after adding Eu-PT66 antibody) [3]?
**A.** 35000

**Q.** And the Average Signal at 665 nm (TR-FRET kinase assay; kinase 2 nM, read 24 h after adding Eu-PT66 antibody) [3]?
**A.** 30100

B6: ROR2 (protein)
chain: VCMCRNKQKASASTPQRRQLMASPSQDMEMPLINQHKQAKLKEISLSAVRFMEELGEDRFGKVYKGHLFGPAPGEQTQAVAIKTLKDKAEGPLREEFRHEAMLRARLQHPNVVCLLGVVTKDQPLSMIFSYCSHGDLHEFLVMRSPHSDVGSTDDDRTVKSALEPPDFVHLVAQIAAGMEYLSSHHVVHKDLATRNVLVYDKLNVKISDLGLFREVYAADYYKLLGNSLLPIRWMAPEAIMYGKFSIDSDIWSYGVVLWEVFSYGLQPYCGYSNQDVVEMIRNRQVLPCPDDCPAWVYALMIECWNEFPSRRPRFKDIHSRLRAWGNLSNYNSSAQTSGASNTTQTSSLSTSPVSNVSNARYVGPKQKAPPFPQPQFIPMKGQIRPMVPPPQLYVPVNGYQPVPAYGAYLPNFYPVQIPMQMAPQQVPPQMVPKPSSHHSGSGSTSTGYVTTAPSNTSMADRAALLSEGADDTQNAPEDGAQSTVQEAEEEEEGSVPETELLGDCDTLQVDEAQVQLEA
**Q.** B6 was tested. Which Signal to Noise Ratio with BRB1 Peptide (TR-FRET kinase assay; kinase 20 nM) [1] did it give?
**A.** 1

B7: RON (protein)
chain: SYWWRRKQLVLPPNLNDLASLDQTAGATPLPILYSGSDYRSGLALPAIDGLDSTTCVHGASFSDSEDESCVPLLRKESIQLRDLDSALLAEVKDVLIPHERVVTHSDRVIGKGHFGVVYHGEYIDQAQNRIQCAIKSLSRITEMQQVEAFLREGLLMRGLNHPNVLALIGIMLPPEGLPHVLLPYMCHGDLLQFIRSPQRNPTVKDLISFGLQVARGMEYLAEQKFVHRDLAARNCMLDESFTVKVADFGLARDILDREYYSVQQHRHARLPVKWMALESLQTYRFTTKSDVWSFGVLLWELLTRGAPPYRHIDPFDLTHFLAQGRRLPQPEYCPDSLYQVMQQCWEADPAVRPTFRVLVGEVEQIVSALLGDHYVQLPATYMNLGPSTSHEMNVRPEQPQFSPMPGNVRRPRPLSEPPRPT
**Q.** B7 was tested. Which Signal to Noise ratio with BRB1 Peptide (TR-FRET kinase assay; kinase 0.25 nM) [1] did it give?
**A.** 3.5

B8: CSK (protein)
chain: MSAIQAAWPSGTECIAKYNFHGTAEQDLPFCKGDVLTIVAVTKDPNWYKAKNKVGREGIIPANYVQKREGVKAGTKLSLMPWFHGKITREQAERLLYPPETGLFLVRESTNYPGDYTLCVSCDGKVEHYRIMYHASKLSIDEEVYFENLMQLVEHYTSDADGLCTRLIKPKVMEGTVAAQDEFYRSGWALNMKELKLLQTIGKGEFGDVMLGDYRGNKVAVKCIKNDATAQAFLAEASVMTQLRHSNLVQLLGVIVEEKGGLYIVTEYMAKGSLVDYLRSRGRSVLGGDCLLKFSLDVCEAMEYLEGNNFVHRDLAARNVLVSEDNVAKVSDFGLTKEASSTQDTGKLPVKWTAPEALREKKFSTKSDVWSFGILLWEIYSFGRVPYPRIPLKDVVPRVEKGYKMDAPDGCPPAVYEVMKNCWHLDAAMRPSFLQLREQLEHIKTHELHL
**Q.** How did the Signal to Noise Ratio with BRB1 Peptide (TR-FRET kinase assay; kinase 20 nM) [1] turn out when B8 was run?
**A.** 27.2

B9: BTK (protein)
chain: AAVILESIFLKRSQQKKKTSPLNFKKRLFLLTVHKLSYYEYDFERGRRGSKKGSIDVEKITCVETVVPEKNPPPERQIPRRGEESSEMEQISIIERFPYPFQVVYDEGPLYVFSPTEELRKRWIHQLKNVIRYNSDLVQKYHPCFWIDGQYLCCSQTAKNAMGCQILENRNGSLKPGSSHRKTKKPLPPTPEEDQILKKPLPPEPAAAPVSTSELKKVVALYDYMPMNANDLQLRKGDEYFILEESNLPWWRARDKNGQEGYIPSNYVTEAEDSIEMYEWYSKHMTRSQAEQLLKQEGKEGGFIVRDSSKAGKYTVSVFAKSTGDPQGVIRHYVVCSTPQSQYYLAEKHLFSTIPELINYHQHNSAGLISRLKYPVSQQNKNAPSTAGLGYGSWEIDPKDLTFLKELGTGQFGVVKYGKWRGQYDVAIKMIKEGSMSEDEFIEEAKVMMNLSHEKLVQLYGVCTKQRPIFIITEYMANGCLLNYLREMRHRFQTQQLLEMCKDVCEAMEYLESKQFLHRDLAARNCLVNDQGVVKVSDFGLSRYVLDDEYTSSVGSKFPVRWSPPEVLMYSKFSSKSDIWAFGVLMWEIYSLGKMPYERFTNSETAEHIAQGLRLYRPHLASEKVYTIMYSCWHEKADERPTFKILLSNILDVMDEES
**Q.** B9 was tested. Which Signal to Noise ratio with BRB1 Peptide (TR-FRET kinase assay; kinase 0.25 nM) [1] did it give?
**A.** 6.8
